Values joined by “and” are separate entries in the source; they are usually repeats but may differ in a detail not shown here. Equal values may be shown once.
Target: human EPO receptor (EPO-Rc) (human) (UniProt P19235)
Assay: cell-based or functional assay

UniProt P19235, sequence (P19235 25-508): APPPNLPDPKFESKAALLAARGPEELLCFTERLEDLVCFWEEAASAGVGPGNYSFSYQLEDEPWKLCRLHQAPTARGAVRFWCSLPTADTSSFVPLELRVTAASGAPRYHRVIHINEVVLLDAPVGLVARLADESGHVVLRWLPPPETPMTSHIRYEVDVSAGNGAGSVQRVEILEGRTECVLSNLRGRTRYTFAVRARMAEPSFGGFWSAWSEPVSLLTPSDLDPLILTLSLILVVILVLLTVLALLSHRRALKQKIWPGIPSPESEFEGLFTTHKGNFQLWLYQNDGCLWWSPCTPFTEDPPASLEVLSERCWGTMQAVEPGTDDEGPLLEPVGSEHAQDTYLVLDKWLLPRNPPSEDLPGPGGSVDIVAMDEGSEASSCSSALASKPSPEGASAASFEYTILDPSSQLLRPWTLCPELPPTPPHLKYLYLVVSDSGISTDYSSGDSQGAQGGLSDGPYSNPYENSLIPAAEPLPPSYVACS

Question: With “Recombinant human EPO (rHuEPO) (from UniProt P01588 28-192) (ligand)” as the substance, how does the proliferation of the 32D1.9 cells (MTT, OD 550 nm); in vitro biological activity on a molar basis read?
Answer: 3e+06 units/µmole and 4e+06 units/µmole
